Reference: patent US20090075921A1, “Bone/joint disease sensitivity gene and use thereof” (Riken, priority 2004, published 2009)

Key:
TGF-β1 = TGF-β1 (Homo sapiens, UniProt P01137); assay: Binding assay of asporin and TGF-β by pull-down assay method; details: S-Protein agarose precipitate, Western blotting
Protocol: With the pET29b-ASP13 and pET29b-ASP14 thus prepared as the templates, S-tagged human asporin D13 and D14 were prepared by performing a reaction in the presence of Transcend™ Biotin-Lysyl-tRNA using TNT Quick Coupled Transcription/Translation Systems (Promega). A reaction mixture comprising S-tagged human asporin D13 or D14 (10 μl) and TGF-β1 (0.1 μg) were mixed in buffer A (50 mM Tris (pH 7.5), 150 mM NaCl, 1% Triton X-100, complete protease inhibitor cocktail tablets (Roche)) at 4° C. for 1 hour, S-Protein agarose (Novagen, 12.5 μl) was added, and the mixture was further incubated at room temperature for 30 minutes. The precipitated resin was washed with buffer A five times, after which SDS-PAGE was performed under reducing conditions. S-tagged human asporin in the precipitate was detected by Western blotting using streptavidin-HRP (R&D Systems), and TGF-β1 was detected by Western blotting using biotinylated anti-TGF-β1 antibody (Genzyme). As a result of an examination of the binding of human asporin and TGF-β by the method described above, a band of TGF-β1 was detected in the precipitate comprising S-tagged human asporin D13 or D14 (FIG. 17).
Using the recombinant mouse asporin purified by the method described in Example 31, its capability of binding with TGF-β1 was examined by the method described in Example 22 (pull-down assay method); as a result, it was confirmed that TGF-β1 was detected in the precipitate of purified mouse asporin (FIG. 26).

ATDC5 cells = assay: Purified recombinant mouse asporin on TGF-β1-stimulated aggrecan and type II collagen gene expression in ATDC5; assay type: cell-based; details: TGF-β1 10 ng/ml, 18 hours, corrected by GAPDH
Protocol: ATDC5 cells were inoculated to a 12-well plate at […], and cultured in a medium 1-2 (a DMEM/F12 medium containing 5% FBS, ITS (Sigma), penicillin (100 U/ml) and streptomycin (100 μg/ml)) for 2 days. Purified mouse asporin diluted with a medium 1-2 containing 0.2% FBS was added to the cells, and the cells were further cultured for 12 hours, after which TGF-β1 (10 ng/ml) was added, and the cells were further cultured for 18 hours, after which total RNA extraction, purification, cDNA synthesis, and real-time PCR were performed in the same manner as Example 18. At this time, the expression levels of the aggrecan and type II collagen genes were corrected by the expression level of the […] (GAPDH) gene.

[1] = system: Smad2 phosphorylation in ATDC5 cells; assay: TGF-β1-stimulated Smad2 phosphorylation in ATDC5 cells (Western blotting); assay type: cell-based, mouse; details: TGF-β1 10 ng/ml, 5 minutes
Protocol: ATDC5 was inoculated to a 12-well plate, and cultured using the medium 1-2 described in Example 19 until the cells became confluent, after which the medium was exchanged with the same medium but containing 0.2% FBS; 4 hours later, asporin was added. 12 hours later, TGF-β1 (10 ng/ml) was added; 5 minutes later, the cells were lysed with the M-PER reagent (PIERCE). Using this cell extract, SDS-PAGE was performed, and according to the protocol attached to an antibody product of Cell Signaling Company, Western blotting was performed. As the primary antibodies for detection of phosphorylated Smad2 and Smad2 protein, phospho-Smad2 antibody (Cell Signaling) and rabbit anti-Smad2 (Zymed Laboratories) were used, respectively. As the secondary antibody, anti-rabbit IgG-HRP (Cell Signaling) was used.

bFGF = bFGF (Homo sapiens, UniProt P09038); assay: Binding assay of mouse asporin and bFGF by microplate assay method; details: bFGF-coated plate, OD405
Sequence of bFGF (P09038 134-288 limits assumed, species assumed): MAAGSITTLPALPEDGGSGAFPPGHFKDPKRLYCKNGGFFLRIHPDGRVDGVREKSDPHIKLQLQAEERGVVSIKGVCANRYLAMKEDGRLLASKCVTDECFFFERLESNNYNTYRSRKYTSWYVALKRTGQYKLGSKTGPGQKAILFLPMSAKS
Protocol: A binding assay was performed using the method described in Example 24 with a partial modification as described below. To a Maxisorp 96-well microplate of Nunc, a 1 μg/ml TGF-β1 solution prepared with 0.05M sodium carbonate buffer (pH 9.6) was dispensed at 100 μl/well, and the microplate was coated with TGF-β1 at 4° C. overnight. The TGF-β-coated wells were blocked in 200 μl/well of Block Ace at 37° C. for 3 hours. Next, mouse asporin and biotinylated mouse asporin, diluted with Block Ace, were added to obtain a total volume of 100 μl per well, and the microplate was incubated at 4° C. overnight. The wells were washed with […] of TBST three times, after which streptavidin-alkaline phosphatase (Novagen) diluted 1000 fold with TBST was added at […], and the microplate was incubated at room temperature for 1 hour. The wells were washed with 400 μl/well of TBST five times, and then colored using an alkaline phosphatase substrate kit (BIO-RAD), and the absorbance at 405 nm was measured using Ultramark Microplate Imaging System (BIO-RAD).
A binding assay was performed in the same manner as Example 34 except that the microplate was coated with bFGF solution in place of 1 μg/ml TGF-β1.

[2] = system: Smad2 phosphorylation in NHAC; assay: Smad2 phosphorylation by TGF-β1 in NHAC (Western blotting); assay type: cell-based, human; details: asporin 20 μg/ml, TGF-β1 40 ng/ml, 10 minutes
Protocol: NHAC was inoculated to a 12-well plate, and cultured in a DMEM/F12 containing 10% FBS and penicillin/streptomycin; when the cells became nearly confluent, the medium was exchanged with the same medium containing 0.2% serum. 12 hours later, asporin (20 μg/ml) was added; still 12 hours later, TGF-β1 (40 ng/ml) was added; 10 minutes later, the cells were lysed with the M-PER reagent (PIERCE). SDA-PAGE was performed using this cell extract, and Western blotting was performed according to the protocol attached to an antibody product of Cell Signaling Company. As the primary antibodies for detection of phosphorylated Smad2 and Smad2 protein, Phospho-Smad2 antibody (Cell Signaling) and rabbit anti-Smad2 (Zymed Laboratories) were used, respectively. As the […], anti-rabbit IgG-HRP (Cell Signaling) was used.

Sequence of TGF-β1 (P01137 279-390 limits assumed, species assumed): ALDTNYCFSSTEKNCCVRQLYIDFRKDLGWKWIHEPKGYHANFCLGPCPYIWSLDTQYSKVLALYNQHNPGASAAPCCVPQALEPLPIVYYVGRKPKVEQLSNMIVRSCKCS

B1: purified mouse asporin: recombinant mouse asporin expressed in Escherichia coli, refolded from insoluble fraction and purified by gel filtration (protein)
chain: DMEDTDDDDNDDDDNSLFPTKEPVNPFFPFDLFPTCPFGCQCYSRVVHCSDLGLTSVPNNIPFDTRMVDLQNNKIKEIKENDFKGLTSLYALILNNNKLTKIHPKTFLTTKKLRRLYLSHNQLSEIPLNLPKSLAELRIHDNKVKKIQKDTFKGMNALHVLEMSANPLENNGIEPGAFEGVTVFHIRIAEAKLTSIPKGLPPTLLELHLDFNKISTVELEDLKRYRELQRLGLGNNRITDIENGTFANIPRVREIHLEHNKLKKIPSGLQELKYLQIIFLHYNSIAKVGVNDFCPTVPKMKKSLYSAISLFNNPMKYWEIQPATFRCVLGRMSVQLGNVGK
modifications: left off: small tags and cut ends
- binding to TGF-β1 (pull-down) (TGF-β1): bound to TGF-β1 in vitro
- suppression of the TGF-β1-stimulated expression of the aggrecan and type II collagen genes (ATDC5 cells): observed depending on the amount of purified mouse asporin added
- Smad2 phosphorylation by TGF-β1 stimulation [1]: suppressed the Smad2 phosphorylation by TGF-β1 (10 ng/ml) stimulation concentration-dependently
- binding to bFGF (microplate) (bFGF): bound to bFGF concentration-dependently and specifically
- Smad2 phosphorylation by TGF-β1 stimulation [2]: suppressed the Smad2 phosphorylation by TGF-β1 stimulation
